The values below come from paper PMC9998937.

The data set has as its target T1, ArcR (Staphylococcus aureus NCTC8325) (UniProt Q2FUY1).
T1 sequence: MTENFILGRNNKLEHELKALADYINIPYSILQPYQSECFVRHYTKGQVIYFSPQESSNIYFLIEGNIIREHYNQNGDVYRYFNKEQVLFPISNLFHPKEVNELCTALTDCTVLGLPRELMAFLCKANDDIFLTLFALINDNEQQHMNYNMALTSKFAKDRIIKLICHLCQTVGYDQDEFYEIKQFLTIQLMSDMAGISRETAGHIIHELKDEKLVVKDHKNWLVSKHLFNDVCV
As to the kind of experiment: EMSA.

For “ACACCAGTTAACTTTTTGTCTTGTTGTGACATAGTCATCCCTCCACAATTTATAATAATTATAATTTAATACATATTATAATTTAACCCCATCAAAATTACAATTAAACATGCTCAAGATGATTAAAAAATCAGAAAATTTTAATTTTTTCGCTTTACAGTACTAAATAGTTATTGAATAGTACACTTAAAAAGCTTACAATAATGGGTATATTTAAATAGATGGGAGACTAAATATGGAAGAT (double strand) [katA promoter region]”, the binding entry is “binds”. For “AGCGCGTGTTGTTATGTCGCGAATGGTAATCTTTTCTAAATCTTTTTCTTGTAGTAATTTAGTGAACGCTTGTTTAATGGAGGACTTTGTCTTTCTAATTCGCCTATCTTCTTTCAAAAATAAATCAACCTCCTTGTGTTATTGAACAATGTGGGTGTATTTGTCTATTAATGAACGTATTGATGAACATTGTGTATTGTTTATTCCCACTTACATATTATAATAGACAACATGCGAAATATTCAACACATTGTCTAATAAGGAGGT (double strand) [tetA promoter region]” the value was “no binding”.
